Measurements: publication PMC12831459, “Identification and characterization of a TGF-β-independent SMAD4–NFATc1–STAT3 regulatory axis” (Journal of Molecular Cell Biology, 2025)

Biological target: T1, GST-SMAD4 (full-length, WT) (human, UniProt Q13485 1-552)
T1 construct: SMAD4, human, Human ORFeome V8.1 clone; Gateway mammalian GST expression vector (Li et al., 2017); details in the Supplementary material; also called GST-tagged SMAD4 FL; GST-tagged SMAD4 WT; source: HEK293T, transfected, in lysate
T1 sequence (looked up): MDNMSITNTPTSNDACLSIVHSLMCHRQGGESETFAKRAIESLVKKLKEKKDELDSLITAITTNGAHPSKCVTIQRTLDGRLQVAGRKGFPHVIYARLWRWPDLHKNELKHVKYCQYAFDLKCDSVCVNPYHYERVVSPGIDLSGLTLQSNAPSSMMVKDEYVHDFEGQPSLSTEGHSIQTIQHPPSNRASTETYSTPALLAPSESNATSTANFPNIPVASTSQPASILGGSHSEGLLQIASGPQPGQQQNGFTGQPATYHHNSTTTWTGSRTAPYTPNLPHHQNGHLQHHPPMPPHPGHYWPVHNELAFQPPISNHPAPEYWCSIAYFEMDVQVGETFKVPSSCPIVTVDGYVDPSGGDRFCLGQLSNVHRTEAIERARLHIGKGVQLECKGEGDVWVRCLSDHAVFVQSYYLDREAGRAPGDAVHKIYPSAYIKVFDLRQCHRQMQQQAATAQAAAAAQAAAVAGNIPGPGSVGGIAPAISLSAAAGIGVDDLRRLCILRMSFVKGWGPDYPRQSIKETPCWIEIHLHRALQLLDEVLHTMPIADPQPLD
Assay: FRET or BRET; TR-FRET of single pairs: GST-SMAD4 (WT, domain truncations, truncation mutants) with VF-tagged partners; signal as fold change over empty vector controls
Conditions: partners not purified

TR-FRET PPI signal, fold-of-change (FOC) over negative controls: > 3 fold
B1: Venus-Flag-tagged NFATc1 (VF-NFATc1), full-length WT (natural protein, human, UniProt O95644-2 1-716, looked up)
chain: MPSTSFPVPSKFPLGPAAAVFGRGETLGPAPRAGGTMKSAEEEHYGYASSNVSPALPLPTAHSTLPAPCHNLQTSTPGIIPPADHPSGYGAALDGGPAGYFLSSGHTRPDGAPALESPRIEITSCLGLYHNNNQFFHDVEVEDVLPSSKRSPSTATLSLPSLEAYRDPSCLSPASSLSSRSCNSEASSYESNYSYPYASPQTSPWQSPCVSPKTTDPEEGFPRGLGACTLLGSPRHSPSTSPRASVTEESWLGARSSRPASPCNKRKYSLNGRQPPYSPHHSPTPSPHGSPRVSVTDDSWLGNTTQYTSSAIVAAINALTTDSSLDLGDGVPVKSRKTTLEQPPSVALKVEPVGEDLGSPPPPADFAPEDYSSFQHIRKGGFCDQYLAVPQHPYQWAKPKPLSPTSYMSPTLPALDWQLPSHSGPYELRIEVQPKSHHRAHYETEGSRGAVKASAGGHPIVQLHGYLENEPLMLQLFIGTADDRLLRPHAFYQVHRITGKTVSTTSHEAILSNTKVLEIPLLPENSMRAVIDCAGILKLRNSDIELRKGETDIGRKNTRVRLVFRVHVPQPSGRTLSLQVASNPIECSQRSAQELPLVEKQSTDSYPVVGGKKMVLSGHNFLQDSKVIFVEKAPDGHHVWEMEAKTDRDLCKPNSLVVEIPPFRNQRITSPVHVSFYVCNGKRKRSQYQRFTYLPANGNAIFLTVSREHERVGCFF
notes: NFATc1, human, Human ORFeome V8.1 clone; also called VF-tagged NFATc1 FL; VF-tagged NFATc1 WT; source: HEK293T, transfected, in lysate; in live cells for the BRET screen
